Here are results for one molecule from patent US20110136811A1, “PROKINETICIN 1 RECEPTOR” (published 2011).

This test deals with rat PK1 receptor, endogenous in rat ileum (rat, UniProt Q8R416). Nature of the test: cell-based or functional assay.

B1: PK1 ligand preparation (recombinant human Prokineticin 1 after enterokinase removal of the N-terminal FLAG tag) (ligand)
chain: AVITGACERDVQCGAGTCCAISLWLRGLRMCTPLGREGEECHPGSHKVPFFRKRKHHTCPCLPNLLCSRFPDGRYRCSMDLKNINF
Turning to B1, the “EC50 of the early contractile response of isolated rat ileum” value worked out at 87.8 nM and the “EC50 of the late contractile response of isolated rat ileum” value came to 72.4 nM.
